Literature values, collected in publication PMC4659487.

Molecular target: MurC (Escherichia coli) (UniProt P17952)

Kd: 1000 nM
Substance: MurC (from UniProt P17952)
